Drawing on paper PMC7794242, this text covers stoichiometry N for one substance.

In the assay the target is HCoV-229E S glycoprotein wild-type soluble ectodomain (residues 1-1116) with C-terminal GCN4 trimerization motif (HCoV-229E) (UniProt P15423). Kind of assay: cryo-EM structure; S trimer peak 2 (conformation 1, 3.21 A) and peak 3 (conformation 2, 3.55 A) samples at 0.75 mg/ml; C3 symmetry applied.

For orientation: stoichiometry N means a count of units in the complex or per binding partner. Take “HCoV-229E S glycoprotein wild-type soluble ectodomain (residues 1-1116) with C-terminal GCN4 trimerization motif (from UniProt P15423 16-1116) (domain or fragment)”: the stoichiometry N worked out at 3.
